Test results reported in patent publication US20210046181A1 (VALITOR, published 2021).
One block for each binder: values may come before it.

Experiments:
IL-1β = experiment: BLI (ForteBio Octet Red), target adsorbed on the probe
mouse TNFα [1] = molecular target: T1, mouse TNFα (mouse, UniProt P06804 80-235); experiment: cell-based or functional assay
T1 sequence (looked up): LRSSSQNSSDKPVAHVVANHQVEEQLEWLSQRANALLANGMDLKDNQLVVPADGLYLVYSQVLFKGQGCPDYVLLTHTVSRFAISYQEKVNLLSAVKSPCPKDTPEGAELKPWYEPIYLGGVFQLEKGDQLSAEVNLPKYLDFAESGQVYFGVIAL

mouse TNFα [2] = molecular target: T1, mouse TNFα; experiment: BLI (ForteBio Octet Red), target adsorbed on the probe

Sequence of IL-1β (P01584 117-269): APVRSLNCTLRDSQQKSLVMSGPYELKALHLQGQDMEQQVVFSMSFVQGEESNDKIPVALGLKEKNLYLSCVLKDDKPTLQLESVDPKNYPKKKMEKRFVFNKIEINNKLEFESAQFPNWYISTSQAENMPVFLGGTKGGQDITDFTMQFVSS

- Kd (IL-1β): 0.84 nM
B1: (anti-IL-1β scFv antibody-EMCH)15-HyA (2000 kDa) (scFv)
scFv: SNAEIVMTQSPSTLSASVGDRVIITCQASQSIDNWLSWYQQKPGKAPKLLIYRASTLASGVPSRFSGSGSGAEFTLTISSLQPDDFATYYCQNTGGGVSIAFGQGTKLTVLGGGGGSGGGGSGGGGSGGGGSEVQLVESGGGLVQPGGSLRLSCTASGFSLSSAAMAWVRQAPGKGLEWVGIIYDSASTYYASWAKGRFTISRDTSKNTVYLQMNSLRAEDTAVYYCARERAIFSGDFVLWGQGTLVTVSSSPSTPPTPSPSTPPGGC
modifications: engineered cysteine thiol linked through EMCH (maleimide) to hyaluronic acid (HyA, 2000 kDa)

- Kd (IL-1β): 0.02 nM
B2: (anti-IL-1β scFv antibody-EMCH)-CMC (700 kDa) (scFv)
scFv: B1 scFv
modifications: engineered cysteine thiol linked through EMCH (maleimide) to carboxymethyl cellulose (CMC, 700 kDa)

- Kd (mouse TNFα [2]): 0.17 nM
B3: (anti-(mouse)TNFα VHH antibody-EMCH)273-HyA (2000 kDa) (VHH)
VHH: QVQLQDSGGGLVQAGGSLRLSCAASGGTFSSIIMAWFRQAPGKEREFVGAVSWSGGTTVYADSVLGRFEISRDSARKSVYLQMNSLKPEDTAVYYCAARPYQKYNWASASYNVWGQGTQVTVSS
modifications: engineered cysteine thiol linked through EMCH (maleimide) to hyaluronic acid (HyA, 2000 kDa)
notes: Multivalent peptide-polymer conjugate: about 273 VHH per HyA chain
- IC50 (nM), Bioactivity Data; assay not given, the filing describes IC50 from the L929 fibroblast cell survival assay with TNFα (mouse TNFα [1]): 120 nM
